Reference: the DeepSol protein solubility set

Assay: soluble on expression in E. coli; label from the status in PepcDB or PDB records

Sequence	soluble on expression in E. coli
MTYEAFVELVERLWEEVPEDFKRGLQGVHVFPEAKPEPGLEGVWRLGEYLDPGPPSAFGGFEDLGRHIALYYGSFLEVAGEGFDWEAEVWETMLHELRHHLESLAGRDDLVQEDLRRLDAFRRGGPSGEG	soluble
MTYQTIVVAVDGSKEAEWALKKAIQIAKRNGAKLILSHIIDLRGFTTVEAHDYALAERSEQYANELLERYKNEAIAAGLDDVDIAVEFGSPKVKIAKDVAPKYKADLIVCGATGLNAVERLLIGSVSENIVRHAKCDVLVVRTPKE	soluble
MTYTTRQIGAKNTLEYKVYIEKDGKPVSAFHDIPLYADKENNIFNMVVEIPRWTNAKLEITKEETLNPIIQDTKKGKLKFVRNCFPHHGYIHNYGAFPQTWEDPNVSHPETKAVGDNDPIDVLEIGETIAYTGQVKQVKALGIMALLDEGETDWKVIAIDINDPLAPKLNDIEDVEKYFPGLLRATNEWFRIYKIPDGKPENQFAFSGEAKNKKYALDIIKETHDSWKQLIAGKSSDSKGIDLTNVTLPDTPTYSKAASDAIPPASLKADAPIDKSIDKWFFISGSV	soluble
MVAAAAATGILSLCGSPALADSHADGAATNSPGAVSGNALQVPVDVPVNACGNTVDVIAALNPAFGNECENASDEKTDGHGGGYGEDASSSSSSSTSASSSGSHADGATEGSPGVGSGNNAQVPVDVPVNLCGNTVDVIAALNPVFGNKCENDAEEPPGYGEEEPPPPTTPPGYGEEEPPPPTHEEPPPPSGEEEPPPPSEEEHTPPAPQTEQPPALAETGSEGTLGAAAAGAVLIAGGAILYRRGRALSGRLEHHHHHH	not soluble
MVAATPVQFVLPPLPEAPTAAAARLDGLSLADSGGGAGVRTVRLREALYGAGPYESADASMAELAAQIASLDRDKARSALAAVWQATVLGRPNRAANQVALAAAGGVLLLVDVAVQRLAGVRLEGGARSCSREDEEEAVMALLVLENLSCNVSLHRDMVLGAPGPHLLQMLVALAKDNTAAAAVRVNAAKVLVNLTFSQIELAAAATEAGALPAAVSLLQAGQKQALAETDAEVALGLHRQGAWLLSHLTAGQGCQARELLAAQPQALARIKDLLTTSRDTATLIRCCEVVCNLARGDVGPHAELIRAGLVQVLLKLVEVETEAPAPTGAARSEGSSVDLLLPALTALAALAAGGAACARGLLAHAPLLRTLTGALEWSNLISRDHDLSRVMLAAHSLVYVLGRFALRNRIVVPGVRAGVVVDAGMGATPAAATPQAQQVLQESGYVSFAAAMAALGLQQPRYTAAILGTELESGPHSAVASAAYQVNTELLPMMRHDNARMVVNTCARLYQIAVCLRDSPECRSVLSNTSLSLALSDLLRSQHSSVLQAALCLTDALAALPEVVPQLAANGVLDRLCDLLHNTSAQPQEHKAGTADTAGDPLVVLLAERALVTMFLTRGQHQAE	not soluble
MVADIELDAAQSIAAVLFDKDGTLLGYDASWGPVNRELASIAAKGDAALADRLLAACGMDPVTGHVVPDSLLAAGNTAEIAAGLVAAGSSCDVVELTQRLDRLFTEAADKSVPVTDLKAFFARLKARGYKLGIASSDNENSIRQTAIRFGFEEDIDFVAGYDSGYGTKPQPGMVLGFCEAIGFPPERVAVVGDNNHDLHMAKNAGAGLRIAVLTGTGSRESLGADAHYCFDDITGLEALLPERAV	not soluble
MVAGFTVHSGPHHVPHRDMTHHSRPPGHAPRVTILMPVYNGEKYLAAAMESILDQTFRDFILLIIDDGSSDSSLAIARSFGDPRVQVERNPKNLGLVKTLNRGLDLVQTEFVARMDCDDIALPDRLEKQIAFLDENPDIGMCGTAYELFHESLRQTIRPPCRHEEIVYGLLDDNVFLHSSVIVRMEVLNRHGLRYREDYRLAEDYELWARLARYTHIGNLPQVLVRYRSHPENVSNTNKGEQIATRDRVRLEHLESFGLAPAADQKTLHIDLFSLAFQGSPDQLADARRWLEALARAVSTRCGLPLGRLHRDFALLWYSACGRSAHHGLTVLFSYLKSAMAWKGPKSYILKLLFRCLMRDPIPAVTK	not soluble
MVAHDETGGLLPIKRTIRVLDVNNQSFREQEEPSNKRVRPLARVTSLANLISPVRNGAVRRFGQTIQSFTLRGDHRSPASAQKFSSRSTVPTPAKRRSSALWSEMLDITMKESLTTREIRRQEAIYEMSRGEQDLIEDLKLARKAYHDPMLKLSIMSEEELTHIFGDLDSYIPLHEDLLTRIGEATKPDGTVEQIGHILVSWLPRLNAYRGYCSNQLAAKALLDQKKQDPRVQDFLQRCLESPFSRKLDLWSFLDIPRSRLVKYPLLLKEILKHTPKEHPDVQLLEDAILIIQGVLSDINLKKGESECQYYIDKLEYLDEKQRDPRIEASKVLLCHGELRSKSGHKLYIFLFQDILVLTRPVTRNERHSYQVYRQPIPVQELVLEDLQDGDVRMGGSFRGAFSNSEKAKNIFRIRFHDPSPAQSHTLQANDVFHKQQWFNCIRAAIAPFQSAGSPPELQGLPELHEECEGNHPSARKLTAQRRASTVSSVTQVEVDENAYRCGSGMQMAEDSKSLKTHQTQPGIRRARDKALSGGKRKETLV	soluble
MVAMFLAVAVVLGLATSPTAEGGKATTEEQKLIEDVNASFRAAMATTANVPPADKYKTFEAAFTVSSKRNLADAVSKAPQLVPKLDEVYNAAYNAADHAAPEDKYEAFVLHFSEALRIIAGTPEVHAVKPGA	soluble
MVARDTTAPQVKIVNPVTGNVSGSNVPISVNASDDSGASGITYALYIDGVLKATGKGSTLGYNWNIRNVAAGAHTVQVVAKDAAGNSASSSVSVTVVKLEHHHHHH	not soluble
MVARSPKGCQEKPVASGKSGIMPSSGRGFRALAPRTLAPFQGAFGGGPSSPGGPHEGGPTPWPTRWRSGSSASGARAGVTPRTLRRIFLEEVERELGPEKARLLAKQTLPFEEIFVVEGRKQRPFSKGLLTRSLEDAGFSLREAHELAKAVERRLRLEGVRRIPAKRLEKVVAEEARRLYGPEAGERYRARLLYAGELFVEEAPGAPRVPFSKGILAQSLMAIGLSPDRAFRLAREMEVALHREGVQVIRRDELRRRVHQALLREAGEEMARRYLILRSLRKQPRPVHILIGGVTGVGKSVLASALAYRLGITHIVPSDAVREVFRVSLSKDLLPTLHLSTFEAWRALSPGLGLEGESYEVQVMRGFLDQVAKVAVGLKAIQERSALEGTSIVLEGVHVVPRFLQHPYQDRVFTIPMLVAVQDENLHRDRFLLRDRETGHARPKERYLQHFEEIRLIQNHLLRWAREEGIPVIPGEDLDEGIEKALEVLVAYLEAQGQRLEEAHA	soluble
MVASSINEESSLAVNLTSDVEKASKTLFKAFEKSYANDYLMKKFFHIPITEKVSRARINAMIHYYTTCYHDLDGEIAEANDFDAVAIWSRPGCHLPATLSDDESFNKIFFSRLDCEEARSHASGNGLLLPLCHRKRS	not soluble
MVCFASLFEEVSMHTCPLCHNQHTRHYFEDKHREYLQCEQCYLVFVNPDQRLDAETEKAHYDLHENNPEDIGYRRFLSRIADPITERISPQSNGIDFGCGPGPTLSLMLEEAGHNMALYDIYYHPDTAVLEKQYDFMTATEVIEHLYHPDVVWKQWLNLVKPGGWIGLMTKMVIDVEAFKSWHYKNDPTHVVFFSRDTFQFLAERDKLELEFIGNDVILLRKTQLEHHHHHH	soluble
MVCSGAPVALIPTSSGAIMLDYPSMRAVALVARTGSFEKAAQVLCVTPSAVSQRIKQLEERLGVVLIVRGNPCVATEKGEWLCRHMDHVGMLESELFRQLPALTEAGDAQERVTLNIATNADSLGTWFLDAVSKFTGGSDYLVNIAVDDQDHTVEWLRGGRVLAAVTAHDKPVQGCRVTPLGVLRYHATASPDFMARHFADGVTPAALARAPGLTFNQKDRLQASWIRTALGEDVSYPTHWLPSTDGFVKASLAGMGWGLNPVQLVAEHLAAGRLVELMPGTPLDIPLYWQVNRLAAERLAGLTANMVGTARVVLMPVG	soluble
MVDQAQDTLRPNNRLSDMQATMEQTQAVENRVLERLNAGKTVRSFLITAVELLTEAVNLLVLQVFRKDDYAVKYAVEPLLDGDGPLGDLSVRLKLIYGLGVINRQEYEDAELLMALREELNHDGNEYAFTDDEILGPFGELHCVAALPPPPQFEPADSSLYAMQIQRYQQAVRSTMVLSLTELISKISLKKAFQK	not soluble
MVDSIIFDLDGTLWDSTEEVCKVWQDVLSEHKEIELSVTKDLFRSLMGLSFEEIANRLFPNLSEEERMNLLNECSLKECDYLSENGAKLFDDIEDTLKLLSKKYKLFIVSNCQAGYIESFLKAHKLEQYFIDFECPGNTGLHKGENNKLIIERNKLINPIYVGDTQGDANSAKFVGIPFIYAKYGFGNVDVYDYFIDSFKDLLEHDILK	not soluble
